Patent US20100015126A1, “Methods of Binding of Cross-Beta Structures By Chaperones” (priority 2006, published 2010)

What was measured:
BiP-Sepharose [1] = target: T1, BiP-Sepharose (Homo sapiens, UniProt P11021); experiment: BiP-Sepharose extraction of proteins from patient plasma, serum, synovial fluid and mass-spectrometric identification; type: binding; conditions: compared to AL amyloidosis patient II
T1 construct: The human BiP gene except the signal peptide encoding region was obtained from Geneart (Germany); linker […]; made in house; host or cells: HEK 293E cells, transient transfection, PABC674 vector; secreted into the medium
Procedure: BiP was coated on CNBr-Sepharose (GE-Healthcare, Amersham Biosciences). Immobilization of BiP was performed essentially as described elsewhere in this application for NHS-Sepharose. CNBr-matrix was dissolved at 200 mg/ml in 1 mM HCl and treated the same as the NHS-matrix, except for an additional 5 minutes activation step in 1 mM HCl on a roller device before washing in this buffer. BiP was diluted in immobilization buffer (50 mM NaCl and 40 mM NaHCO3) to a concentration of 820 μg/ml. A total volume of 2 ml BiP solution (1640 μg BiP) was incubated with 360 mg beads. Negative control matrix was exposed to immobilization buffer, only. After overnight immobilization matrix was blocked with Tris and washed.
(§1) Six samples were incubated with the BiP-Sepharose, IgIV-Sepharose and the control-Sepharose: Normal pooled plasma, plasma of a patient I or of a patient II, with AL amyloidosis, serum of a patient III with RA (Rheumatoid Factor (RF) titer 682), control serum and synovial fluid of a patient IV with RA (RF titer 23). All samples were diluted 20× in HBS and applied to 200 μl beads in two volumes of 500 μl. One volume was incubated for 4 h at RT and supernatant was discarded after centrifugation (2 minutes at 1400 rpm). Subsequently, the second volume was applied to the same matrix and incubated overnight on a roller device at 4° C. […] To collect the eluates, the matrices were centrifuged and the two eluates were pooled for each sample.
(§2) Protein digests were desalted as described (Rappsilber et al., 2003), vacuum dried and dissolved in 2.5% formic acid.
(§3) For analysis of peptide mixtures, an Agilent 1100 HPLC system (Agilent Technologies) connected to a Thermo Finnigan LTQ-MS (Thermo Electron, Bremen, Germany) was used. Protein digests were injected on a trap column (Reprosil C18 RP (Dr Maisch, Germany), 20 mm×100 μm I.D.) at 5 μl/minute. Subsequently, the peptides were transferred with a split-reduced flow rate of 100 nL/minute solvent A (0.1 M acetic acid) on the analytical column (Reprosil C18 RP, 20 cm×50 μm I.D.). […] The column effluent was directly introduced into the ESI source of the mass spectrometer via a butt-connected nano-ESI emitter (New Objectives, Woburn, Mass.). The mass spectrometer was operated in the positive ion mode and parent ions were selected for fragmentation in data-dependent mode.
(§4) After mass spectrometric measurements, peak lists were generated using BioWorks software (Thermo Electron, Bremen, Germany). Protein identification was performed using Mascot software (www.matrixscience.com) by searching the IPIhuman database (version 3.24, downloaded from ftp://ftp.ebi.ac.uk/pub/databases/IPI/current) using the following settings: fully tryptic peptides, peptide tolerance 0.8 Da, MS/MS tolerance 0.9 Da, 1 missed cleavage allowed, carbamidomethyl (Cys) and oxidation (Met) as fixed and variable modification, respectively. The Scaffold software package (www.proteomesoftware.com) was used to parse the data and to filter peptides at a confidence level of 95%, allowing only protein identification with at least 2 peptides identified.

BiP-Sepharose [2] = target: T1, BiP-Sepharose; experiment: Experiment 2: BiP-Sepharose extraction from six synovial fluid samples of RA patients and mass spectrometry; type: binding; conditions: BiP-Sepharose eluate, synovial fluid of RA patient
Procedure: as §1, §2, §3, §4
Those samples are listed below: • 1. […] One difference when compared to the protocol described above is that now with the twelve samples, elution buffer comprised 1 M NaCl. Again, a misfolded protein or a protein binding to misfolded protein is identified uniquely in the synovial fluid when no or a relatively very low number of fragments are detected in eluates of control-Sepharose.

T1 sequence (P11021 19-654): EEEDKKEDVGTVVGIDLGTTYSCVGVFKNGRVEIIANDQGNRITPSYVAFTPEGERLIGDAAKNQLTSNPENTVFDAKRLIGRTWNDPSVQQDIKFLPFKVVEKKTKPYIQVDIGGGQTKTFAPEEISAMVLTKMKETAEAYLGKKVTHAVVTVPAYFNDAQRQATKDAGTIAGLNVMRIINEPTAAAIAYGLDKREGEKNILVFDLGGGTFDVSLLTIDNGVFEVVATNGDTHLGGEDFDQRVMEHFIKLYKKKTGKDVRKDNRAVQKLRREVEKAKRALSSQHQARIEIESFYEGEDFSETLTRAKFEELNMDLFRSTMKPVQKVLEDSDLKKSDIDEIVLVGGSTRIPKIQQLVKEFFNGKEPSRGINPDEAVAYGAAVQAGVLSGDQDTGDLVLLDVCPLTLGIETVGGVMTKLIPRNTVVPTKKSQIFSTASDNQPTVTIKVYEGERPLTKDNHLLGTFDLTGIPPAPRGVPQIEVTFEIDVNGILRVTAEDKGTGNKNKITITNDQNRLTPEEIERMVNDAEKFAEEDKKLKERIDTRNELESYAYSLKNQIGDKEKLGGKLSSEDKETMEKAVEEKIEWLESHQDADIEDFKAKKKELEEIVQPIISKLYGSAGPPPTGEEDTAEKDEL

Molecule	Specific binding to BiP-Sepharose from normal pooled plasma (BiP-Sepharose [1])	# of unique peptides (BiP-Sepharose [2]; Sample 1B)	# of unique peptides (BiP-Sepharose [2]; Sample 3B)	# of unique peptides (BiP-Sepharose [2]; Sample 5B)	# of unique peptides (BiP-Sepharose [2]; Sample 2B)
complement C4a (protein, UniProt P0C0L4 680-756, looked up, C4a anaphylatoxin) C4a anaphylatoxin: NVNFQKAINEKLGQYASPTAKRCCQDGVTRLPMMRSCEQRAARVQQPDCREPFLSCCQFAESLRKKSRDKGQAGLQR	specifically bound				
IGHM protein, immunoglobulin heavy chain mu (heavy chain disease protein) (protein) GSASAPTLFPLVSCENSPSDTSSVAVGCLAQDFLPDSITFSWKYKNNSDISSTRGFPSVLRGGKYAATSQVLLPSKDVMQGTDEHVVCKVQHPNGNKEKNVPLPVIAELPPKVSVFVPPRDGFFGNPRKSKLICQATGFSPRQIQVSWLREGKQVGSGVTTDQVQAEAKESGPTTYKVTSTLTIKESDWLGQSMFTCRVDHRGLTFQQNASSMCVPDQDTAIRVFAIPPSFASIFLTKSTKLTCLVTDLTTYDSVTISWTRQNGEAVKTHTNISESHPNATFSAVGEASICEDDWNSGERFTCTVTHTDLPSPLKQTISRPKGVALHRPDVYLLPPAREQLNLRESATITCLVTGFSPADVFVQWMQRGQPLSPEKYVTSAPMPEPQAPGRYFAHSILTVSEEEWNTGETYTCVVAHEALPNRVTERTVDKSTGKPTLYNVSLVMSDTAGTCY		3	1		
CDNA FLJ14473 fis, clone MAMMA1001080, highly similar to Homo sapiens SNC73 protein (SNC73) mRNA, immunoglobulin heavy constant alpha 1 (protein, UniProt P01876 1-398, looked up) Immunoglobulin heavy constant …: ASPTSPKVFPLSLCSTQPDGNVVIACLVQGFFPQEPLSVTWSESGQGVTARNFPPSQDASGDLYTTSSQLTLPATQCLAGKSVTCHVKHYTNPSQDVTVPCPVPSTPPTPSPSTPPTPSPSCCHPRLSLHRPALEDLLLGSEANLTCTLTGLRDASGVTFTWTPSSGKSAVQGPPERDLCGCYSVSSVLPGCAEPWNHGKTFTCTAAYPESKTPLTATLSKSGNTFRPEVHLLPPPSEELALNELVTLTCLARGFSPKDVLVRWLQGSQELPREKYLTWASRQEPSQGTTTFAVTSILRVAAEDWKKGDTFSCMVGHEALPLAFTQKTIDRLADWQMPPPYVVLDLPQETLEEETPGANLWPTTITFLTLFLLSLFYSTALTVTSVRGPSGNREGPQY		2	1	1	
Histidine-rich glycoprotein precursor (protein) VSPTDCSAVEPEAEKALDLINKRRRDGYLFQLLRIADAHLDRVENTTVYYLVLDVQESDCSVLSRKYWNDCEPPDSRRPSEIVIGQCKVIATRHSHESQDLRVIDFNCTTSSVSSALANTKDSPVLIDFFEDTERYRKQANKALEKYKEENDDFASFRVDRIERVARVRGGEGTGYFVDFSVRNCPRHHFPRHPNVFGFCRADLFYDVEALDLESPKNLVINCEVFDPQEHENINGVPPHLGHPFHWGGHERSSTTKPPFKPHGSRDHHHPHKPHEHGPPPPPDERDHSHGPPLPQGPPPLLPMSCSSCQHATFGTNGAQRHSHNNNSSDLHPHKHHSHEQHPHGHHPHAHHPHEHDTHRQHPHGHHPHGHHPHGHHPHGHHPHGHHPHCHDFQDYGPCDPPPHNQGHCCHGHGPPPGHLRRRGPGKGPRPFHCRQIGSVYRLPPLRKGEVLPLPEANFPSFPLPHHKHPLKPDNQPFPQSVSESCPGKFKSGFPQVSMFFTHTFPK		2		1	1
IGHM protein, immunoglobulin heavy constant gamma 2 (protein) ASTKGPSVFPLAPCSRSTSESTAALGCLVKDYFPEPVTVSWNSGALTSGVHTFPAVLQSSGLYSLSSVVTVPSSNFGTQTYTCNVDHKPSNTKVDKTVERKCCVECPPCPAPPVAGPSVFLFPPKPKDTLMISRTPEVTCVVVDVSHEDPEVQFNWYVDGVEVHNAKTKPREEQFNSTFRVVSVLTVVHQDWLNGKEYKCKVSNKGLPAPIEKTISKTKGQPREPQVYTLPPSREEMTKNQVSLTCLVKGFYPSDISVEWESNGQPENNYKTTPPMLDSDGSFFLYSKLTVDKSRWQQGNVFSCSVMHEALHNHYTQKSLSLSPGK		1			1
FLJ00385 protein (Fragment), immunoglobulin heavy constant mu (protein) GSASAPTLFPLVSCENSPSDTSSVAVGCLAQDFLPDSITFSWKYKNNSDISSTRGFPSVLRGGKYAATSQVLLPSKDVMQGTDEHVVCKVQHPNGNKEKNVPLPVIAELPPKVSVFVPPRDGFFGNPRKSKLICQATGFSPRQIQVSWLREGKQVGSGVTTDQVQAEAKESGPTTYKVTSTLTIKESDWLGQSMFTCRVDHRGLTFQQNASSMCVPDQDTAIRVFAIPPSFASIFLTKSTKLTCLVTDLTTYDSVTISWTRQNGEAVKTHTNISESHPNATFSAVGEASICEDDWNSGERFTCTVTHTDLPSPLKQTISRPKGVALHRPDVYLLPPAREQLNLRESATITCLVTGFSPADVFVQWMQRGQPLSPEKYVTSAPMPEPQAPGRYFAHSILTVSEEEWNTGETYTCVVAHEALPNRVTERTVDKSTGKPTLYNVSLVMSDTAGTCY		1	2		1
Galectin-3-binding protein precursor (protein) VNDGDMRLADGGATNQGRVEIFYRGQWGTVCDNLWDLTDASVVCRALGFENATQALGRAAFGQGSGPIMLDEVQCTGTEASLADCKSLGWLKSNCRHERDAGVVCTNETRSTHTLDLSRELSEALGQIFDSQRGCDLSISVNVQGEDALGFCGHTVILTANLEAQALWKEPGSNVTMSVDAECVPMVRDLLRYFYSRRIDITLSSVKCFHKLASAYGARQLQGYCASLFAILLPQDPSFQMPLDLYAYAVATGDALLEKLCLQFLAWNFEALTQAEAWPSVPTDLLQLLLPRSDLAVPSELALLKAVDTWSWGERASHEEVEGLVEKIRFPMMLPEELFELQFNLSLYWSHEALFQKKTLQALEFHTVPFQLLARYKGLNLTEDTYKPRIYTSPTWSAFVTDSSWSARKSQLVYQSRRGPLVKYSSDYFQAPSDYRYYPYQSFQTPQHPSFLFQDKRVSWSLVYLPTIQSCWNYGFSCSSDELPVLGLTKSGGSDRTIAYENKALMLCEGLFVADVTDFEGWKAAIPSALDTNSSKSTSSFPCPAGHFNGFRTVIRPFYLTNSSGVD		1	1		
Apolipoprotein A-IV precursor (protein) EVSADQVATVMWDYFSQLSNNAKEAVEHLQKSELTQQLNALFQDKLGEVNTYAGDLQKKLVPFATELHERLAKDSEKLKEEIGKELEELRARLLPHANEVSQKIGDNLRELQQRLEPYADQLRTQVSTQAEQLRRQLTPYAQRMERVLRENADSLQASLRPHADELKAKIDQNVEELKGRLTPYADEFKVKIDQTVEELRRSLAPYAQDTQEKLNHQLEGLTFQMKKNAEELKARISASAEELRQRLAPLAEDVRGNLRGNTEGLQKSLAELGGHLDQQVEEFRRRVEPYGENFNKALVQQMEQLRQKLGPHAGDVEGHLSFLEKDLRDKVNSFFSTFKEKESQDKTLSLPELEQQQEQQQEQQQEQVQMLAPLES		3			
